Data reported in patent US20210355187A1, “GLP-2 FUSION POLYPEPTIDES AND USES FOR TREATING AND PREVENTING GASTROINTESTINAL CONDITIONS” (SHIRE-NPS PHARMACEUTICALS, INC., priority 2018, published 2021).
Where two headings read alike, the source gives them in different places.

How the values were obtained:
[1] = SEC-MALS assay (protein stability analysis); type: physicochemical; settings: for SEC-MALS Main Peak: main peak fraction; for SEC-MALS Tailing Peak: tailing peak fraction; for SEC-MALS HMW: high molecular weight fraction
Method: A SEC-MALS assay was performed to determine the primary state (main peak) and its molecular weight. The GLP-2 peptibody A has the amino acid sequence set forth in SEQ ID NO: 1. The GLP-2 peptibody B has the amino acid sequence set forth in SEQ ID NO: 4. The GLP-2 peptibody C has the amino acid sequence set forth in SEQ ID NO: 7. The GLP-2 peptibody D has the amino acid sequence set forth in SEQ ID NO: 10.

[2] = cited from earlier work

GLP-2 peptibody C: GLP-2[A2G]-linker AEAAAKEAAAKEAAAKALEAEAAAKEAAAKEAAAKA-IgG1(LALA) Fc fusion having the amino acid sequence of SEQ ID NO: 7
SEC-MALS Main Peak [1]: 82.6% Main Peak | SEC-MALS Tailing Peak [1]: 17.4% Tailing Peak

GLP-2 peptibody D: GLP-2[A2G] with C-terminal arginine-linker GGGGSGGGGSGGGGS-IgG1(LALA) Fc fusion having the amino acid sequence of SEQ ID NO: 10
SEC-MALS HMW [1]: 1.4% HMW | SEC-MALS Main Peak [1]: 86.8% Main Peak | SEC-MALS Tailing Peak [1]: 11.8% Tailing Peak

CC[C@H](C)[C@H](NC(=O)[C@H](Cc1ccccc1)NC(=O)[C@H](CC(=O)O)NC(=O)[C@H](CCCNC(=N)N)NC(=O)[C@H](C)NC(=O)[C@H](C)NC(=O)[C@H](CC(C)C)NC(=O)[C@H](CC(N)=O)NC(=O)[C@H](CC(=O)O)NC(=O)[C@H](CC(C)C)NC(=O)[C@@H](NC(=O)[C@@H](NC(=O)[C@H](CC(N)=O)NC(=O)[C@H](CCSC)NC(=O)[C@H](CCC(=O)O)NC(=O)[C@H](CC(=O)O)NC(=O)[C@H](CO)NC(=O)[C@H](Cc1ccccc1)NC(=O)[C@H](CO)NC(=O)CNC(=O)[C@H](CC(=O)O)NC(=O)CNC(=O)[C@@H](N)Cc1c[nH]cn1)[C@@H](C)O)[C@@H](C)CC)C(=O)N[C@@H](CC(N)=O)C(=O)N[C@@H](Cc1c[nH]c2ccccc12)C(=O)N[C@@H](CC(C)C)C(=O)N[C@H](C(=O)N[C@@H](CCC(N)=O)C(=O)N[C@H](C(=O)N[C@@H](CCCCN)C(=O)N[C@H](C(=O)N[C@H](C(=O)N[C@@H](CC(=O)O)C(=O)O)[C@@H](C)O)[C@@H](C)CC)[C@@H](C)O)[C@@H](C)CC [Teduglutide]
half-life ([2]; SBS patients): ~1.3 h | half-life ([2]; healthy patients): approximately 2 hours

GLP-2 peptibody B: GLP-2[A2G]-linker APAPAPAPAPAPAPAPAPAP-IgG1(LALA) Fc fusion having the amino acid sequence of SEQ ID NO: 4
SEC-MALS HMW [1]: 1.2% HMW | SEC-MALS Main Peak [1]: 80.7% Main Peak | SEC-MALS Tailing Peak [1]: 18.1% Tailing Peak
